Laboratory results reported in IntAct's records for PubMed 31515488.

B1: Bleomycin hydrolase (Homo sapiens), Q13867 (parent)
chain: MSSSGLNSEKVAALIQKLNSDPQFVLAQNVGTTHDLLDICLKRATVQRAQHVFQHAVPQEGKPITNQKSSGRCWIFSCLNVMRLPFMKKLNIEEFEFSQSYLFFWDKVERCYFFLSAFVDTAQRKEPEDGRLVQFLLMNPANDGGQWDMLVNIVEKYGVIPKKCFPESYTTEATRRMNDILNHKMREFCIRLRNLVHSGATKGEISATQDVMMEEIFRVVCICLGNPPETFTWEYRDKDKNYQKIGPITPLEFYREHVKPLFNMEDKICLVNDPRPQHKYNKLYTVEYLSNMVGGRKTLYNNQPIDFLKKMVAASIKDGEAVWFGCDVGKHFNSKLGLSDMNLYDHELVFGVSLKNMNKAERLTFGESLMTHAMTFTAVSEKDDQDGAFTKWRVENSWGEDHGHKGYLCMTDEWFSEYVYEVVVDRKHVPEEVLAVLEQEPIILPAWDPMGALAE
B2: Zinc finger protein 473 (Homo sapiens), Q8WTR7 (parent)
chain: MAEEFVTLKDVGMDFTLGDWEQLGLEQGDTFWDTALDNCQDLFLLDPPRPNLTSHPDGSEDLEPLAGGSPEATSPDVTETKNSPLMEDFFEEGFSQEIIEMLSKDGFWNSNFGEACIEDTWLDSLLGDPESLLRSDIATNGESPTECKSHELKRGLSPVSTVSTGEDSMVHNVSEKTLTPAKSKEYRGEFFSYSDHSQQDSVQEGEKPYQCSECGKSFSGSYRLTQHWITHTREKPTVHQECEQGFDRNASLSVYPKTHTGYKFYVCNEYGTTFSQSTYLWHQKTHTGEKPCKSQDSDHPPSHDTQPGEHQKTHTDSKSYNCNECGKAFTRIFHLTRHQKIHTRKRYECSKCQATFNLRKHLIQHQKTHAAKTTSECQECGKIFRHSSLLIEHQALHAGEEPYKCNERGKSFRHNSTLKIHQRVHSGEKPYKCSECGKAFHRHTHLNEHRRIHTGYRPHKCQECVRSFSRPSHLMRHQAIHTAEKPYSCAECKETFSDNNRLVQHQKMHTVKTPYECQECGERFICGSTLKCHESVHAREKQGFFVSGKILDQNPEQKEKCFKCNKCEKTFSCSKYLTQHERIHTRGVKPFECDQCGKAFGQSTRLIHHQRIHSRVRLYKWGEQGKAISSASLIKLQSFHTKEHPFKCNECGKTFSHSAHLSKHQLIHAGENPFKCSKCDRVFTQRNYLVQHERTHARKKPLVCNECGKTFRQSSCLSKHQRIHSGEKPYVCDYCGKAFGLSAELVRHQRIHTGEKPYVCQECGKAFTQSSCLSIHRRVHTGEKPYRCGECGKAFAQKANLTQHQRIHTGEKPYSCNVCGKAFVLSAHLNQHLRVHTQETLYQCQRCQKAFRCHSSLSRHQRVHNKQQYCL

Variants of: B1
Conditions: with nud12_human NUDT12, Q9BQG2
nud12_human NUDT12, Q9BQG2, sequence (Q9BQG2 whole entry): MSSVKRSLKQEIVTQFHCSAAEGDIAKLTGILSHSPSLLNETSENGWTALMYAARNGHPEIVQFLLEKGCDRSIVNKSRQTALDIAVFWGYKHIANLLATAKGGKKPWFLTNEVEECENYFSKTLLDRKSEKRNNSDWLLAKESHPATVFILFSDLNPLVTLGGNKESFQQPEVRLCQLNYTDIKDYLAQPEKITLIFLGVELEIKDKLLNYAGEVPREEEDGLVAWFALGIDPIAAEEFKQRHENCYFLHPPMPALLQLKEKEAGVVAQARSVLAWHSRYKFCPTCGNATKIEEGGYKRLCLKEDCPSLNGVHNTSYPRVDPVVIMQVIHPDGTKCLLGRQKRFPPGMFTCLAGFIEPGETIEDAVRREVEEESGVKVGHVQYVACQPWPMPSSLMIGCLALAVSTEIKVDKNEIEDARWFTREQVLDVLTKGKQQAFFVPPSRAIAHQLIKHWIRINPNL

| effect of a mutation on the interaction | Variant |
| --- | --- |
| with no effect | I443V |

Variants of: B1
Conditions: with ntaq1_human NTAQ1, Q96HA8

| effect of a mutation on the interaction | Variant |
| --- | --- |
| with no effect | E381K |

Variants of: B2
Conditions: with gpt2l_human GPATCH2L

| effect of a mutation on the interaction | Variant |
| --- | --- |
| with no effect | R223C |
| with no effect | R605Q |
| with no effect | E309G |
| with no effect | Y456H |
| with no effect | S535N |

Variants of: B2
Conditions: with zn792_human ZNF792, Q3KQV3
zn792_human ZNF792, Q3KQV3, sequence (Q3KQV3 whole entry): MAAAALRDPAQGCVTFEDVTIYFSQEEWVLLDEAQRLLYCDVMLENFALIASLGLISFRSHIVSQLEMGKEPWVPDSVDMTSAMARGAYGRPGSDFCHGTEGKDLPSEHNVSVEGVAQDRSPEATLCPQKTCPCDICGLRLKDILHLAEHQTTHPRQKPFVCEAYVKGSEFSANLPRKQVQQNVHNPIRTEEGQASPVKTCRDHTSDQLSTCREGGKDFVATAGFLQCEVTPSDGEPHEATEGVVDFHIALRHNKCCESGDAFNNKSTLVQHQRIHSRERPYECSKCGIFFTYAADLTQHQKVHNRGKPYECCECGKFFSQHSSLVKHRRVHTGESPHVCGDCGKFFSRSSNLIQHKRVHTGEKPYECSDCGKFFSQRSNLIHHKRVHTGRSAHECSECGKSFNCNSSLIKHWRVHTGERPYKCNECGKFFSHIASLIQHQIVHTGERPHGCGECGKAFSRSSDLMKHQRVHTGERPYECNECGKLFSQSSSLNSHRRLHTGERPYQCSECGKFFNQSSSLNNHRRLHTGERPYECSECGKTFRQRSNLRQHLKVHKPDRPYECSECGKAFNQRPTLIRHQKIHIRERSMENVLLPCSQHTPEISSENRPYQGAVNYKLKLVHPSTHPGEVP

| effect of a mutation on the interaction | Variant |
| --- | --- |
| with no effect | R223C |
| with no effect | R605Q |
| with no effect | T164M |
| with no effect | E309G |
| with no effect | Y456H |
| with no effect | S535N |

Variants of: B2
Conditions: with tri41_human TRIM41, Q8WV44

| effect of a mutation on the interaction | Variant |
| --- | --- |
| with no effect | R223C |
| with no effect | T164M |
| with no effect | E309G |
| with no effect | Y456H |
| with no effect | S535N |

Variants of: B2
Conditions: with aen_human AEN

| effect of a mutation on the interaction | Variant |
| --- | --- |
| with no effect | R223C |
| with no effect | R605Q |
| with no effect | T164M |
| with no effect | E309G |
| with no effect | Y456H |
| with no effect | S535N |
